Measurements from patent US20170306005A1 (NASCIENT, published 2017).
Substitutions are numbered along the chain they refer to. Names may count otherwise.

T1: human tenascin-C rCd4-His-FBG (rat; human, UniProt P05540 207-392, limits assumed)
T1 construct: domain: domains 3 and 4; C-terminal FBG fusion; biotinylated in the ELISA and HTRF screens; also called Hu TNC; human TNC rCd4-His-FBG; not shown: 6His tag
T1 sequence (chain (part 1 of 2)): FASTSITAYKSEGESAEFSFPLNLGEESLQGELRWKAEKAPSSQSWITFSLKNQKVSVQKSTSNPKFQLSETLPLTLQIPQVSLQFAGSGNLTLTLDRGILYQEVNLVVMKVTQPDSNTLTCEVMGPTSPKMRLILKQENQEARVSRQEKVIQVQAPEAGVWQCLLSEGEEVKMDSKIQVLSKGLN
T1 sequence (chain (part 2 of 2)): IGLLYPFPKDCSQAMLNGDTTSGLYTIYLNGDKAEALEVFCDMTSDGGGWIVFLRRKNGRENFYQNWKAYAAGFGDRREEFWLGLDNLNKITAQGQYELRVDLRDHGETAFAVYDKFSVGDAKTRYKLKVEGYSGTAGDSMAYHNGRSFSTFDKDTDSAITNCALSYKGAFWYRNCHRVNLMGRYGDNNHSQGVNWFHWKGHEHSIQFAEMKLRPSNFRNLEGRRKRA

T2: mouse tenascin-C rCd4-His-FBG (rat; mouse, UniProt P05540 207-392, limits assumed)
T2 construct: domain: domains 3 and 4; C-terminal FBG fusion; biotinylated in the ELISA screen; also called Mu TNC; mouse TNC rCd4-His-FBG; not shown: 6His tag
T2 sequence (chain (part 1 of 2)): T1 sequence (chain (part 1 of 2))
T2 sequence (chain (part 2 of 2)): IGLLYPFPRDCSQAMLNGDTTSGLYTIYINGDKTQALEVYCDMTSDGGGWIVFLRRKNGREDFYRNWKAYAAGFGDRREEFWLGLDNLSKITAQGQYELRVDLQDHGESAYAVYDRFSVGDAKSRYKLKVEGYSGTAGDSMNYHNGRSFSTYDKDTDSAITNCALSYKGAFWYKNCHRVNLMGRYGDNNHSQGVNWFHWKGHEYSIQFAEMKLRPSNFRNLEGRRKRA

T3: human tenascin-R rCd4-His-FBG (rat; human, UniProt P05540 207-392, limits assumed)
T3 construct: domain: domains 3 and 4; C-terminal FBG fusion; also called Hu TNR; human TNR rCd4-His-FBG; not shown: 6His tag
T3 sequence (chain (part 1 of 2)): T1 sequence (chain (part 1 of 2))
T3 sequence (chain (part 2 of 2)): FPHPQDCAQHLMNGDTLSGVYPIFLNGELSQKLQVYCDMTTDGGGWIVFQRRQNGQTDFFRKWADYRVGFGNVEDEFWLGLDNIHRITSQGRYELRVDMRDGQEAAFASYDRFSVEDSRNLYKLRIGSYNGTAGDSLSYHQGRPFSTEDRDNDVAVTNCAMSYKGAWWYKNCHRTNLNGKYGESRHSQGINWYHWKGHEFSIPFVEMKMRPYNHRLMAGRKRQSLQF

B1: 165_13_D1 scFv (scFv, V domains shown, not shown: small tags and cut ends)
VH: QVQLVESGGGLVQPGRSLRLSCAASGFTFDDYAMHWVRQAPGKGLEWVSGISGSGGSTYYADSVKGRFTISRDNAKNSLYLQMNSLRAEDTALYYCAKGTRGEGDTFDIWGQGTMVTVSS
VL: DIQMTQSPASLPTPVGDRVTITCRASQYIQGFLNWYQQKPGKAPKLLIYDASNLETGVPSRFSGSGSGTDFTLTISSLQPEDFATYYCQQSYSTPQTFGQGTKVDIK
notes: E. coli supernatant scFv
B2: 165_13_B6 scFv (scFv, V domains shown, not shown: small tags and cut ends)
VH: B1 VH with T100Q, R101K
VL: B1 VL
notes: E. coli supernatant scFv
B3: 165_13_B1 scFv (scFv, V domains shown, not shown: small tags and cut ends)
VH: B1 VH with G99V, T100M, R101S, G102S, E103M, G104E, T106A
VL: B1 VL
notes: E. coli supernatant scFv
B4: 162_02_H5 scFv (scFv, V domains shown, not shown: small tags and cut ends)
VH: EVRLVQSGAEVKKPGASVKVSCKVSGYTLTELSMHWVRQAPGKGLEWMGGFDPEDGETIYAQKFQGRVTMTEDTSTDTAYMELSSLRSEDTAVYYCATAQKETYALTYWGQGTLVTVSS
VL: DIQMTQSPASLPTSVGDRVTITCRASQYIQGFLNWYQQKPGKAPRLLIYAASTLQDGVPSRFSGSGYGTDFTLTISSLQPEDFATYYCQNQYTGPWTFGQGTKVEIK
notes: E. coli supernatant scFv
B5: 163_02_A12 scFv (scFv, V domains shown)
VH: B4 VH
VL: B4 VL with Q89L, N90H, Q91H, T93R, G94E
notes: E. coli supernatant scFv; not shown: scFv linker, domain order and the pSANG10 tags (FLAG/His)
B6: 163_02_D11 scFv (scFv, V domains shown)
VH: B4 VH
VL: B4 VL with Q89L, N90H, Q91H, T93K, G94S
notes: as for B5
B7: 2A5 human IgG4 (antibody, V domains shown)
VH: B4 VH
VL: DIQMTQSPASLPTSVGDRVTITCRASQYIQGFLNWYQQKPGKAPRLLIYAASTLQDGVPSRFSGSGYGTDFTLTISSLQPEDFATYYCQQSYSTPWTFGQGTKVEIKR
notes: human IgG4 with hinge S241P; also called 2A5 parent
B8: 165_13_B6 human IgG4 (antibody, V domains shown)
VH: B1 VH with T100Q, R101K
VL: B7 VL with S14P, R45K, A50D, T53N, Q55E, D56T, Y67S, W96Q, E105D
notes: human IgG4 with hinge S241P
B9: 165_13_D4 human IgG4 (antibody, V domains shown)
VH: B1 VH with R101V
VL: B7 VL with S14P, R45K, A50D, T53N, Q55E, D56T, Y67S, W96Q, E105D
notes: human IgG4 with hinge S241P
B10: 161_01_H10 human IgG4 (antibody, V domains shown)
VH: B4 VH with K101P, E102V, T103W, Y104A, A105P, L106G
VL: B7 VL
notes: human IgG4 with hinge S241P; also called Antibody 161 01 H10 (derived from 2A5)
B11: 160_01_G2 human IgG4 (antibody, V domains shown)
VH: B4 VH with A99Y, Q100T, K101L, E102D, T103N, Y104M
VL: B7 VL
notes: human IgG4 with hinge S241P; also called Antibody 160 01 G2 (derived from 2A5)
B12: 161_01_A12 human IgG4 (antibody, V domains shown)
VH: B4 VH with K101P, E102T, T103A, Y104L, L106N
VL: B7 VL
notes: human IgG4 with hinge S241P; also called Antibody 161 01 A12 (derived from 2A5)
B13: 161_01_F6 human IgG4 (antibody, V domains shown)
VH: B4 VH with T103N, Y104I, L106N, T107R, Y108H
VL: B7 VL
notes: human IgG4 with hinge S241P; also called 160_01_F6; Antibody 161 01 F6, also known as 160 01 F6 (derived from 2A5)
B14: 161_01_C09 human IgG4 (antibody, V domains shown)
VH: B4 VH with K101L, E102P, T103Y, Y104L, L106Q
VL: B7 VL
notes: human IgG4 with hinge S241P; also called Antibody 161 01 C09 (derived from 2A5)

target: T1, human tenascin-C rCd4-His-FBG; assay: HTRF competition; competitor d2-labelled B12 IgG
Procedure: All samples and reagents were prepared in assay buffer (50 mM NaPO₄, 0.1% BSA, 0.4 M KF, pH 7.0) at 4× the stated concentration. 5 μl of each reagent was subsequently added to low volume 384-well assay plates (Greiner, 784075) to give a final reaction volume of 20 μl. IgG antibodies were labelled using the d2 labelling kit (CisBio, 62D2DPEA) as directed by the manufacturer. Streptavidin europium cryptate (CisBio, 610SAKLA, Lot#25C) was used at a final concentration of 1.8 ng active moiety (SA) per 20 μl reaction as recommended by the manufacturer. Biotinylated rCd4-His-FBG was prepared using EZ-link Sulfo-NHS-LC-Biotin reagent (Thermo Scientific, 21327) the extent of biotinylation was quantified using biotinylation fluorescence quantitation kit (Thermo Scientific, 46610). Where appropriate, supernatants containing scFv (prepared as described above for ELISA assays) were added to the 384-well assay plate at a final dilution of 1/20 (i.e. 1/5 dilution in assay buffer followed by addition of 5 μl diluted sample to the 20 μl FRET assay). […] Samples were incubated for approximately 1 h at room temperature and the FRET signal was determined using a BMG Pherastar instrument: excitation=320 nm; emission=620 nm and 665 nm; integration start time=60 μs; integration time=500 μs; 100 flashes per well. For competition assays containing culture supernatant, biotinylated rCd4-His-FBG antigen was pre-incubated with streptavidin europium cryptate for 45 min prior to addition of reagents to the assay plate. All FRET signals are presented as ΔR, where R=(E665/E620×104) and ΔR=(Rsample−Rbackground fluorescence).

% inhibition of HTRF signal [%]	% inhibition of FRET signal [%]	Binder
≥ 91		B1
≥ 91		B2
≥ 91		B3
	≥ 83	B4
	≥ 83	B5
	≥ 83	B6

target: T2, mouse tenascin-C rCd4-His-FBG; assay: anti-FLAG capture ELISA, scFv supernatant

fold improvement in binding over parent [fold]	Binder
≥ 4	B1
≥ 4	B2
≥ 4	B3
≥ 10	B4
≥ 10	B5
≥ 10	B6

target: T2, mouse tenascin-C rCd4-His-FBG; assay: SPR, captured purified IgG4, 37 C
Procedure: (§1) Detailed kinetic parameters were evaluated for the 9 prioritised IgG4 antibodies. Binding characteristics were determined for interaction with human, rat and dog TNC rCD4-His-FBG, and human TNR rCD4-His-FBG. Kinetic assays followed essentially the same protocols as for the off-rate determinations described above, with some modifications as follows. […] Purified anti-FBG IgG4 was diluted to a concentration of 3.5 nM in PBS, pH 7.4, 0.05% Tween-20 and injected into FC2 at a flow rate of 10 μl/min, 60 s contact time. […] Antigens were prepared by doubling dilution in PBS, pH 7.4, 0.05% Tween-20 (highest concentration 100 nM except mouse rCD4-His-FBG which was 7 nM). Assays were performed at 37° C. (30 μl/min, 120 s contact time; mouse rCD4-His-FBGFBG 10 μl/min, 60 s contact time), with both the flow cell and injection chamber equilibrated to this temperature. As before, kinetic parameters were determined by reference cell subtraction and fitting the sensogram experimental data assuming a 1:1 interaction using BIAevaluation software (GE, BR-1005-97).

Kd [nM]	koff [s⁻¹]	kon [M⁻¹ s⁻¹]	Binder
123	0.0106	86800	B7

target: T1, human tenascin-C rCd4-His-FBG; assay: SPR, captured purified IgG4, 37 C
Procedure: as §1

Kd [nM]	koff [s⁻¹]	kon [M⁻¹ s⁻¹]	Binder
23.8	0.0323	1.36e+06	B7

target: T3, human tenascin-R rCd4-His-FBG; assay: SPR off-rate screen, captured IgG4 supernatant, 25 C
Procedure: (§2) The 31 scFv of interest were sub-cloned into a human IgG4 expression vector for generation of antibodies as human IgG4 with a hinge-stabilising mutation (S241P; Angal et al, 1993). […] Briefly, surface plasmon resonance (SPR) experiments were performed using a BIAcore T100 instrument and followed the protocol according to the Human antibody capture kit protocol (GE, BR-1008-39). For off-rate screening, 10,000 response units (RU) of anti-human Fc IgG (GE, BR-1008-39) was immobilised on flow-cells (FC1 and FC2) of a Series 5 CM5 dextran sensor chip (BR-1005-30) using EDC/NHS cross-linking chemistry according to the amine coupling kit protocol (GE, BR-1000-50). Culture supernatants containing expressed IgG4 were diluted 1:2 with 2×PBS-T and injected into FC2 (flowrate 5 μl/min, 60 s contact time) to enable antibody capture at 25° C. […] A fixed concentration of antigen (15 nM of human and mouse TNC rCd4-His-FBG and 100 nM of human TNR rCd4-His-FBG) was injected with a flow-path via FC 1 (reference flow cell) and FC 2 (antibody capture flow cell), with a flow rate of 30 μl/min, and the association and dissociation phases measured over 1 and 5 min time periods, respectively. Regeneration of the binding surface employed 3M MgCl₂ with 30 s contact time. Off rates were determined by reference cell subtraction and fitting the sensogram experimental data assuming a 1:1 interaction using BIAevaluation software (GE, BR-1005-97).

koff [s⁻¹]	Binder
0.0037	B8
0.004	B9
0.0091	B10
0.001	B11
0.0042	B12
0.0025	B13
0.00029	B14

target: T2, mouse tenascin-C rCd4-His-FBG; assay: as above
Procedure: as §2

koff [s⁻¹]	Binder
6.9e-06	B8
3.7e-06	B9
1.9e-06	B10
1.39e-05	B11
4.3e-06	B12
0.00171	B13
2.3e-07	B14

target: T1, human tenascin-C rCd4-His-FBG; assay: as above
Procedure: as §2

koff [s⁻¹]	Binder
5.6e-06	B8
0.0091	B7
6.2e-07	B9
2.5e-05	B10
1.25e-05	B11
1.3e-06	B12
2.8e-06	B13
1.17e-07	B14
